Laboratory results reported in IntAct's records for PubMed 35512704.

B1: Mothers against decapentaplegic homolog 4 (Homo sapiens), Q13485 (parent)
chain: MDNMSITNTPTSNDACLSIVHSLMCHRQGGESETFAKRAIESLVKKLKEKKDELDSLITAITTNGAHPSKCVTIQRTLDGRLQVAGRKGFPHVIYARLWRWPDLHKNELKHVKYCQYAFDLKCDSVCVNPYHYERVVSPGIDLSGLTLQSNAPSSMMVKDEYVHDFEGQPSLSTEGHSIQTIQHPPSNRASTETYSTPALLAPSESNATSTANFPNIPVASTSQPASILGGSHSEGLLQIASGPQPGQQQNGFTGQPATYHHNSTTTWTGSRTAPYTPNLPHHQNGHLQHHPPMPPHPGHYWPVHNELAFQPPISNHPAPEYWCSIAYFEMDVQVGETFKVPSSCPIVTVDGYVDPSGGDRFCLGQLSNVHRTEAIERARLHIGKGVQLECKGEGDVWVRCLSDHAVFVQSYYLDREAGRAPGDAVHKIYPSAYIKVFDLRQCHRQMQQQAATAQAAAAAQAAAVAGNIPGPGSVGGIAPAISLSAAAGIGVDDLRRLCILRMSFVKGWGPDYPRQSIKETPCWIEIHLHRALQLLDEVLHTMPIADPQPLD
partner: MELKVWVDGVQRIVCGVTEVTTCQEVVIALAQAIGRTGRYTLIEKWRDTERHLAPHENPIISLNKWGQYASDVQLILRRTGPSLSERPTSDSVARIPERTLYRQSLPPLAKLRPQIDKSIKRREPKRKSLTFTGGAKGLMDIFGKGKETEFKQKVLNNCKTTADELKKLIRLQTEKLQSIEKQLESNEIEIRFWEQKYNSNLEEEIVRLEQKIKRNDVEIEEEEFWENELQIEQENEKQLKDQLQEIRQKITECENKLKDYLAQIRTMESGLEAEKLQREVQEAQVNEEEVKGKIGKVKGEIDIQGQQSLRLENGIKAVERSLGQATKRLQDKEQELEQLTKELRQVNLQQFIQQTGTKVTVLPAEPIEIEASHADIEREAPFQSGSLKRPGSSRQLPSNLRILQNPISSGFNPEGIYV
B2: Mothers against decapentaplegic homolog 4 (Homo sapiens), Q13485 (parent)
chain: B1 chain
partner: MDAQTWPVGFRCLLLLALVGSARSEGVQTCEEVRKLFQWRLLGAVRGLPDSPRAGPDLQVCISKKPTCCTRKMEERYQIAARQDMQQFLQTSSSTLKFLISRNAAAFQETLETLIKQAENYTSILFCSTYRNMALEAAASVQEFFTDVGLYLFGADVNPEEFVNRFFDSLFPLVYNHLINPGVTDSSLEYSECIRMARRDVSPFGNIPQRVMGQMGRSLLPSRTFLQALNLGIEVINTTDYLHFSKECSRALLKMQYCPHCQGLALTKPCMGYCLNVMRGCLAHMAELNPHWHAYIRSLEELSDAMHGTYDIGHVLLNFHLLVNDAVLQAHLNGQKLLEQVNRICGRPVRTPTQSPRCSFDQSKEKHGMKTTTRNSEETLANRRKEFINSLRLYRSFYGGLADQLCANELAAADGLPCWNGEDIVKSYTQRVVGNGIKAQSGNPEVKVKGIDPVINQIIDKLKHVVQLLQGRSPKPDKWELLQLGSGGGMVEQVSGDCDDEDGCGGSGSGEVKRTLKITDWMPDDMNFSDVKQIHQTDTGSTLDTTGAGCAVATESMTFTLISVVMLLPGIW
B3: Mothers against decapentaplegic homolog 4 (Homo sapiens), Q13485 (parent)
chain: B1 chain
partner: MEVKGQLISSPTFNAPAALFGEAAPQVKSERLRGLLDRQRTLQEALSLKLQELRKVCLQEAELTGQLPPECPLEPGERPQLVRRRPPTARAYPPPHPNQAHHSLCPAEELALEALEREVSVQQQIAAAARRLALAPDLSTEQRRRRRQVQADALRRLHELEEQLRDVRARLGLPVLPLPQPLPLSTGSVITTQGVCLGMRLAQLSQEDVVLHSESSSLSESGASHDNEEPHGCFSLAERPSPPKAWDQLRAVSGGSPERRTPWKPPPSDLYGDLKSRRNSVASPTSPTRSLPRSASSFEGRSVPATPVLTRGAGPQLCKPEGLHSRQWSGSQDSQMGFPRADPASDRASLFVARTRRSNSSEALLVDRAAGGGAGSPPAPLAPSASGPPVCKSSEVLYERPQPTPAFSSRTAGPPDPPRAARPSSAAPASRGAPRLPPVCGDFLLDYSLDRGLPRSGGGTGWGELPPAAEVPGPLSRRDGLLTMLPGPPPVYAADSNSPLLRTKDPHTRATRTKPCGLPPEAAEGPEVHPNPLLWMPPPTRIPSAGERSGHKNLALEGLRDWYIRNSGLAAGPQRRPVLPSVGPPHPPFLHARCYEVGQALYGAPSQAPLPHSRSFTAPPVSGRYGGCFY

Variants of: B1
Details: with rasf8_human RASSF8, Q8NHQ8

Variant	effect of a mutation on the interaction
R361C	with no effect

Variants of: B1
Details: with rasf8_human RASSF8, Q8NHQ8
Remark: another data set of the same source

Variant	effect of a mutation on the interaction
R361H	with no effect

Variants of: B1
Details: with rasf8_human RASSF8, Q8NHQ8
Remark: another data set of the same source

Variant	effect of a mutation on the interaction
G386D	with no effect

Variants of: B1
Details: with rasf8_human RASSF8, Q8NHQ8
Remark: another data set of the same source

Variant	effect of a mutation on the interaction
G386D	increasing interaction strength

Variants of: B2
Details: with gpc5_human GPC5, P78333

Variant	effect of a mutation on the interaction
R361H	with no effect

Variants of: B2
Details: with gpc5_human GPC5, P78333
Remark: another data set of the same source

Variant	effect of a mutation on the interaction
R361C	with no effect

Variants of: B2
Details: with gpc5_human GPC5, P78333
Remark: another data set of the same source

Variant	effect of a mutation on the interaction
G386D	with no effect

Variants of: B2
Details: with gpc5_human GPC5, P78333
Remark: another data set of the same source

Variant	effect of a mutation on the interaction
G386D	increasing interaction strength

Variants of: B3
Details: with cc120_human CCDC120, Q96HB5

Variant	effect of a mutation on the interaction
G386D	with no effect

Variants of: B3
Details: with cc120_human CCDC120, Q96HB5
Remark: another data set of the same source

Variant	effect of a mutation on the interaction
G386D	increasing interaction strength

Variants of: B3
Details: with cc120_human CCDC120, Q96HB5
Remark: another data set of the same source

Variant	effect of a mutation on the interaction
R361C	with no effect
